From patent publication US20180155451A1 (published 2018)

Molecular target: T1, FcγRIa extracellular domain with C-terminal His tag (human, UniProt P12314 16-292)
T1 construct: extracellular domain; also called FcgRI; CD64; not shown: His tag at the C terminus
Experiment: SPR Biacore, relative FcγRIa binding vs GpH7-A5/GpH7-B3/GpL16-k0

T1 sequence (P12314 16-292): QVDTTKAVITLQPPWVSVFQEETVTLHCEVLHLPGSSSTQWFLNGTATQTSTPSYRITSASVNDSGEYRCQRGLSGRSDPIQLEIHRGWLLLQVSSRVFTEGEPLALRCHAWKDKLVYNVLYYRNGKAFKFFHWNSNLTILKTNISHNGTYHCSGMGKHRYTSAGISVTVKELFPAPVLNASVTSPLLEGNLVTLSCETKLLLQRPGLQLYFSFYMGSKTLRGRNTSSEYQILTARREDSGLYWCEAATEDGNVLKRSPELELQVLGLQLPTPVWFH

Binder	He/Con_1a
GpH7-A5/GpH7-B3 variant S324_16H/GpL16-k0 (antibody, human IgG1, kappa, mutation in one H chain only; also called He Ab S324_16H; S324H) heavy 1: not shown heavy 2: not shown light: DIVMTQSPLSLPVTPGEPASISCQASESLVHSNRNTYLHWYLQKPGQSPQLLIYKVSNRFSGVPDRFSGSGSGTDFTLKISRVEAEDVGVYYCSQNTHVPPTFGQGTKVEIERTVAAPSVFIFPPSDEQLKSGTASVVCLLNNFYPREAKVQWKVDNALQSGNSQESVTEQDSKDSTYSLSSTLTLSKADYEKHKVYACEVTHQGLSSPVTKSFNRGEC	113 % of HeCon Ab (=100)
GpH7-A5/GpH7-B3 variant S324_15Y/GpL16-k0 (antibody, human IgG1, kappa, mutation in one H chain only; also called He Ab S324_15Y; S324Y) heavy 1: not shown heavy 2: not shown light: DIVMTQSPLSLPVTPGEPASISCQASESLVHSNRNTYLHWYLQKPGQSPQLLIYKVSNRFSGVPDRFSGSGSGTDFTLKISRVEAEDVGVYYCSQNTHVPPTFGQGTKVEIERTVAAPSVFIFPPSDEQLKSGTASVVCLLNNFYPREAKVQWKVDNALQSGNSQESVTEQDSKDSTYSLSSTLTLSKADYEKHKVYACEVTHQGLSSPVTKSFNRGEC	114 % of HeCon Ab (=100)
GpH7-A5/GpH7-B3 variant S298_18N/GpL16-k0 (antibody, human IgG1, kappa, mutation in one H chain only; also called He Ab S298_18N; S298N) heavy 1: not shown heavy 2: not shown light: DIVMTQSPLSLPVTPGEPASISCQASESLVHSNRNTYLHWYLQKPGQSPQLLIYKVSNRFSGVPDRFSGSGSGTDFTLKISRVEAEDVGVYYCSQNTHVPPTFGQGTKVEIERTVAAPSVFIFPPSDEQLKSGTASVVCLLNNFYPREAKVQWKVDNALQSGNSQESVTEQDSKDSTYSLSSTLTLSKADYEKHKVYACEVTHQGLSSPVTKSFNRGEC	108 % of HeCon Ab (=100)
GpH7-A5/GpH7-B3 variant S298_19Q/GpL16-k0 (antibody, human IgG1, kappa, mutation in one H chain only; also called He Ab S298_19Q; S298Q) heavy 1: not shown heavy 2: not shown light: DIVMTQSPLSLPVTPGEPASISCQASESLVHSNRNTYLHWYLQKPGQSPQLLIYKVSNRFSGVPDRFSGSGSGTDFTLKISRVEAEDVGVYYCSQNTHVPPTFGQGTKVEIERTVAAPSVFIFPPSDEQLKSGTASVVCLLNNFYPREAKVQWKVDNALQSGNSQESVTEQDSKDSTYSLSSTLTLSKADYEKHKVYACEVTHQGLSSPVTKSFNRGEC	109 % of HeCon Ab (=100)
GpH7-A5/GpH7-B3 variant S324_18N/GpL16-k0 (antibody, human IgG1, kappa, mutation in one H chain only; also called He Ab S324_18N; S324N) heavy 1: not shown heavy 2: not shown light: DIVMTQSPLSLPVTPGEPASISCQASESLVHSNRNTYLHWYLQKPGQSPQLLIYKVSNRFSGVPDRFSGSGSGTDFTLKISRVEAEDVGVYYCSQNTHVPPTFGQGTKVEIERTVAAPSVFIFPPSDEQLKSGTASVVCLLNNFYPREAKVQWKVDNALQSGNSQESVTEQDSKDSTYSLSSTLTLSKADYEKHKVYACEVTHQGLSSPVTKSFNRGEC	116 % of HeCon Ab (=100)
GpH7-A5/GpH7-B3 variant S298_16H/GpL16-k0 (antibody, human IgG1, kappa, mutation in one H chain only; also called He Ab S298_16H; S298H) heavy 1: not shown heavy 2: not shown light: DIVMTQSPLSLPVTPGEPASISCQASESLVHSNRNTYLHWYLQKPGQSPQLLIYKVSNRFSGVPDRFSGSGSGTDFTLKISRVEAEDVGVYYCSQNTHVPPTFGQGTKVEIERTVAAPSVFIFPPSDEQLKSGTASVVCLLNNFYPREAKVQWKVDNALQSGNSQESVTEQDSKDSTYSLSSTLTLSKADYEKHKVYACEVTHQGLSSPVTKSFNRGEC	109 % of HeCon Ab (=100)
GpH7-A5/GpH7-B3 variant S324_11K/GpL16-k0 (antibody, human IgG1, kappa, mutation in one H chain only; also called He Ab S324_11K; S324K) heavy 1: not shown heavy 2: not shown light: DIVMTQSPLSLPVTPGEPASISCQASESLVHSNRNTYLHWYLQKPGQSPQLLIYKVSNRFSGVPDRFSGSGSGTDFTLKISRVEAEDVGVYYCSQNTHVPPTFGQGTKVEIERTVAAPSVFIFPPSDEQLKSGTASVVCLLNNFYPREAKVQWKVDNALQSGNSQESVTEQDSKDSTYSLSSTLTLSKADYEKHKVYACEVTHQGLSSPVTKSFNRGEC	102 % of HeCon Ab (=100)
GpH7-A5/GpH7-B3 variant S324_12R/GpL16-k0 (antibody, human IgG1, kappa, mutation in one H chain only; also called He Ab S324_12R; S324R) heavy 1: not shown heavy 2: not shown light: DIVMTQSPLSLPVTPGEPASISCQASESLVHSNRNTYLHWYLQKPGQSPQLLIYKVSNRFSGVPDRFSGSGSGTDFTLKISRVEAEDVGVYYCSQNTHVPPTFGQGTKVEIERTVAAPSVFIFPPSDEQLKSGTASVVCLLNNFYPREAKVQWKVDNALQSGNSQESVTEQDSKDSTYSLSSTLTLSKADYEKHKVYACEVTHQGLSSPVTKSFNRGEC	102 % of HeCon Ab (=100)
GpH7-A5/GpH7-B3 variant S324_08L/GpL16-k0 (antibody, human IgG1, kappa, mutation in one H chain only; also called He Ab S324_08L; S324L) heavy 1: not shown heavy 2: not shown light: DIVMTQSPLSLPVTPGEPASISCQASESLVHSNRNTYLHWYLQKPGQSPQLLIYKVSNRFSGVPDRFSGSGSGTDFTLKISRVEAEDVGVYYCSQNTHVPPTFGQGTKVEIERTVAAPSVFIFPPSDEQLKSGTASVVCLLNNFYPREAKVQWKVDNALQSGNSQESVTEQDSKDSTYSLSSTLTLSKADYEKHKVYACEVTHQGLSSPVTKSFNRGEC	103 % of HeCon Ab (=100)
GpH7-A5/GpH7-B3 variant S324_14T/GpL16-k0 (antibody, human IgG1, kappa, mutation in one H chain only; also called He Ab S324_14T; S324T) heavy 1: not shown heavy 2: not shown light: DIVMTQSPLSLPVTPGEPASISCQASESLVHSNRNTYLHWYLQKPGQSPQLLIYKVSNRFSGVPDRFSGSGSGTDFTLKISRVEAEDVGVYYCSQNTHVPPTFGQGTKVEIERTVAAPSVFIFPPSDEQLKSGTASVVCLLNNFYPREAKVQWKVDNALQSGNSQESVTEQDSKDSTYSLSSTLTLSKADYEKHKVYACEVTHQGLSSPVTKSFNRGEC	121 % of HeCon Ab (=100)
GpH7-A5/GpH7-B3 variant S324_03V/GpL16-k0 (antibody, human IgG1, kappa, mutation in one H chain only; also called He Ab S324_03V; S324V) heavy 1: not shown heavy 2: not shown light: DIVMTQSPLSLPVTPGEPASISCQASESLVHSNRNTYLHWYLQKPGQSPQLLIYKVSNRFSGVPDRFSGSGSGTDFTLKISRVEAEDVGVYYCSQNTHVPPTFGQGTKVEIERTVAAPSVFIFPPSDEQLKSGTASVVCLLNNFYPREAKVQWKVDNALQSGNSQESVTEQDSKDSTYSLSSTLTLSKADYEKHKVYACEVTHQGLSSPVTKSFNRGEC	104 % of HeCon Ab (=100)
